# Measured values: article PMC1182330
# Key:
# [1] = system: RNase M5 WT (Bacillus subtilis)
# [2] = system: RNase M5 WT;ribosomal protein L18 (Bacillus subtilis;Bacillus subtilis)
substance,measurement,setting,value
5S rRNA precursor (pre-5S),K half,[1],2000 nM
same,binding signal (fold higher affinity than without L18),[2],10
